According to the supplement of paper PMC11780869:

System: Bacillus subtilis
Experiment: cleaved RNA product abundance (RNA/gDNA barcode ratio) relative to median wild-type variant (ratio to wild type); higher = more accumulation of the downstream cleavage product
Conditions: cleavage site: cggR-gapA (positions -7 to +36 mutated)
Method: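 MPRA in B. subtilis. Mutagenized RNase Y cleavage-site regions (9% mutation rate) were inserted into a barcoded reporter mRNA (truncated aprE or tetM). Cells were grown in LB at 37°C to OD600 0.3. The cleaved RNA isoform was gel-purified and its barcodes counted; the RNA:gDNA barcode ratio was normalised to the median wild-type variant, and the median over barcodes is reported per variant. The printed sequence is the variable window only; the reporter flanks are not printed.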

[1] = experiment (reporter, strain, medium): exp 4a: truncated aprE reporter, strain BJT201 with 2% xylose (RNase J1 expressed)
[2] = experiment (reporter, strain, medium): exp 2b: truncated aprE reporter, strain BJT200
[3] = experiment (reporter, strain, medium): exp 6: tetM reporter, strain 168

Sequence	cleaved RNA product abundance [1]	cleaved RNA product abundance [2]	cleaved RNA product abundance [3]
ACAGACGAAGGAGCCGCAAAGAAGTAATTAAGGCATGAATAATCCCTCAATATAAATATCTCTCACTTATTTAAA	0.0969		
ACAGACGAAGGAGCCGCAAAGAAGTAATTAAGGGAAGAATAATCCCTCAATATAAATATCTCTCACTTATTTAAA	0.263	0.117	
ACAGACGAAGGAGCCGCAAAGAAGTAATTAAGGGACGAATAATCCCTCAATATAAATATCTCTCACTTATTTAAA	0.175	0.139	
ACAGACGAAGGAGCCGCAAAGAAGTAATTAAGGGATAAATAATCCCTCAATATAAATATCTCTCACTTATTTAAA	0.219	0.256	
ACAGACGAAGGAGCCGCAAAGAAGTAATTAAGGGATCAATAATCCCTCAATATAAATATCTCTCACTTATTTAAA	0.305	0.181	
ACAGACGAAGGAGCCGCAAAGAAGTAATTAAGGGATGAAAAATCCCTCAATATAAATATCTCTCACTTATTTAAA	0.272	0.163	
ACAGACGAAGGAGCCGCAAAGAAGTAATTAAGGGATGAACAATCCCTCAATATAAATATCTCTCACTTATTTAAA		0.181	
ACAGACGAAGGAGCCGCAAAGAAGTAATTAAGGGATGAATAAACCCTCAATATAAATATCTCTCACTTATTTAAA	0.198	0.166	
ACAGACGAAGGAGCCGCAAAGAAGTAATTAAGGGATGAATAAACCCTCATTATAAATATCTCTCACTTATTTAAA	0.148		
ACAGACGAAGGAGCCGCAAAGAAGTAATTAAGGGATGAATAACCCCTCAATATAAATATCTCTCACTTATTTAAA	0.158		
ACAGACGAAGGAGCCGCAAAGAAGTAATTAAGGGATGAATAAGCCCTCAATATAAATATCTCTCACTTATTTAAA	0.149		
ACAGACGAAGGAGCCGCAAAGAAGTAATTAAGGGATGAATAATACCTCAATATAAATATCTCTCACTTATTTAAA	0.141	0.115	
ACAGACGAAGGAGCCGCAAAGAAGTAATTAAGGGATGAATAATCACTCAATATAAATATCTCTCACTTATTTAAA	0.109		
ACAGACGAAGGAGCCGCAAAGAAGTAATTAAGGGATGAATAATCCATCAATATAAATATCTCTCACTTATTTAAA	0.183	0.148	
ACAGACGAAGGAGCCGCAAAGAAGTAATTAAGGGATGAATAATCCCTAAATATAAATATCTCTCACTTATTTAAA	0.234		
ACAGACGAAGGAGCCGCAAAGAAGTAATTAAGGGATGAATAATCCCTCAAAATAAATATCTCTCACTTATTTAAA	0.215	0.16	
ACAGACGAAGGAGCCGCAAAGAAGTAATTAAGGGATGAATAATCCCTCAACATAAATATCTCTCACTTATTTAAA	0.21		
ACAGACGAAGGAGCCGCAAAGAAGTAATTAAGGGATGAATAATCCCTCAATATAAAAATCTCTCACTTATTTAAA	0.282		
ACAGACGAAGGAGCCGCAAAGAAGTAATTAAGGGATGAATAATCCCTCAATATAAACATCTCTCACTTATTTAAA	0.264		

Sequence	cleaved RNA product abundance [1]	cleaved RNA product abundance [2]	cleaved RNA product abundance [3]
ACAGACGAAGGAGCCGCAAAGAAGTAATTAAGGGATGAATAATCCCTCAATATAAATAGCTCTCACTTATTTAAA	0.15		
ACAGACGAAGGAGCCGCAAAGAAGTAATTAAGGGATGAATAATCCCTCAATATAAATATCTCTCACTTATTTAAA	0.333	0.241	0.32
ACAGACGAAGGAGCCGCAAAGAAGTAATTAAGGGATGAATAATCCCTCAATATAAATTTCTCTCACTTATTTAAA	0.122		
ACAGACGAAGGAGCCGCAAAGAAGTAATTAAGGGATGAATAATCCCTCAATATAACTATCTCTCACTTATTTAAA	0.215		
ACAGACGAAGGAGCCGCAAAGAAGTAATTAAGGGATGAATAATCCCTCAATATAAGTATCTCTCACTTATTTAAA		0.119	
ACAGACGAAGGAGCCGCAAAGAAGTAATTAAGGGATGAATAATCCCTCAATATAATTATCTCTCACTTATTTAAA	0.199	0.151	
ACAGACGAAGGAGCCGCAAAGAAGTAATTAAGGGATGAATAATCCCTCAATATAGATATCTCTCACTTATTTAAA	0.303		
ACAGACGAAGGAGCCGCAAAGAAGTAATTAAGGGATGAATAATCCCTCAATATATATATCTCTCACTTATTTAAA	0.278	0.2	
ACAGACGAAGGAGCCGCAAAGAAGTAATTAAGGGATGAATAATCCCTCAATGTAAATATCTCTCACTTATTTAAA	0.114		
ACAGACGAAGGAGCCGCAAAGAAGTAATTAAGGGATGAATAATCCCTCACTATAAATATCTCTCACTTATTTAAA	0.168	0.135	
ACAGACGAAGGAGCCGCAAAGAAGTAATTAAGGGATGAATAATCCCTCAGTATAAATATCTCTCACTTATTTAAA	0.0878		
ACAGACGAAGGAGCCGCAAAGAAGTAATTAAGGGATGAATAATCCCTCATTATAAATATCTCTCACTTATTTAAA	0.278		
ACAGACGAAGGAGCCGCAAAGAAGTAATTAAGGGATGAATAATCCCTCCATATAAATATCTCTCACTTATTTAAA	0.0749		
ACAGACGAAGGAGCCGCAAAGAAGTAATTAAGGGATGAATAATCCCTCGATATAAATATCTCTCACTTATTTAAA	0.155	0.102	
ACAGACGAAGGAGCCGCAAAGAAGTAATTAAGGGATGAATAATCCCTCTATATAAATATCTCTCACTTATTTAAA	0.193		
ACAGACGAAGGAGCCGCAAAGAAGTAATTAAGGGATGAATAATCCCTGAATATAAATATCTCTCACTTATTTAAA	0.253		
ACAGACGAAGGAGCCGCAAAGAAGTAATTAAGGGATGAATAATCCGTCAATATAAATATCTCTCACTTATTTAAA	0.179		
ACAGACGAAGGAGCCGCAAAGAAGTAATTAAGGGATGAATAATCCTTCAATATAAATATCTCTCACTTATTTAAA	0.187	0.188	
ACAGACGAAGGAGCCGCAAAGAAGTAATTAAGGGATGAATAATCGCTCAATATAAATATCTCTCACTTATTTAAA	0.0828		

Sequence	cleaved RNA product abundance [1]	cleaved RNA product abundance [2]	cleaved RNA product abundance [3]
ACAGACGAAGGAGCCGCAAAGAAGTAATTAAGGGATGAATAATCTCTCAATATAAATATCTCTCACTTATTTAAA	0.244	0.213	
ACAGACGAAGGAGCCGCAAAGAAGTAATTAAGGGATGAATAATGCCTCAATATAAATATCTCTCACTTATTTAAA	0.164		
ACAGACGAAGGAGCCGCAAAGAAGTAATTAAGGGATGAATAATTCCTCAATATAAATATCTCTCACTTATTTAAA	0.263		
ACAGACGAAGGAGCCGCAAAGAAGTAATTAAGGGATGAATACTCCCTCAATATAAATATCTCTCACTTATTTAAA	0.324		
ACAGACGAAGGAGCCGCAAAGAAGTAATTAAGGGATGAATATTCCCTCAATATAAATATCTCTCACTTATTTAAA	0.293		
ACAGACGAAGGAGCCGCAAAGAAGTAATTAAGGGATGAATCATCCCTCAATATAAATATCTCTCACTTATTTAAA	0.314		
ACAGACGAAGGAGCCGCAAAGAAGTAATTAAGGGATGAATGATCCCTCAATATAAATATCTCTCACTTATTTAAA		0.134	
ACAGACGAAGGAGCCGCAAAGAAGTAATTAAGGGATGAATTATCCCTCAATATAAATATCTCTCACTTATTTAAA	0.355		
ACAGACGAAGGAGCCGCAAAGAAGTAATTAAGGGATGACTAATCCCTCAATATAAATATCTCTCACTTATTTAAA	0.289	0.123	
ACAGACGAAGGAGCCGCAAAGAAGTAATTAAGGGATGCATAATCCCTCAATATAAATATCTCTCACTTATTTAAA	0.288	0.186	
ACAGACGAAGGAGCCGCAAAGAAGTAATTAAGGGATGTATAATCCCTCAATATAAATATCTCTCACTTATTTAAA	0.346		
ACAGACGAAGGAGCCGCAAAGAAGTAATTAAGGGATTAATAATCCCTCAATATAAATATCTCTCACTTATTTAAA	0.379		
ACAGACGAAGGAGCCGCAAAGAAGTAATTAAGGGCTGAATAATCCCTCAATATAAATATCTCTCACTTATTTAAA	0.165	0.161	
ACAGACGAAGGAGCCGCAAAGAAGTAATTAAGGGGTGAATAATCCCTCAATATAAATATCTCTCACTTATTTAAA	0.308		
ACAGACGAAGGAGCCGCAAAGAAGTAATTAAGGGTTGAATAATCCCTCAATATAAATATCTCTCACTTATTTAAA	0.162	0.0812	
ACAGACGAAGGAGCCGCAAAGAAGTAATTAAGGTATGAATAATCCCTCAATATAAATATCTCTCACTTATTTAAA	0.112	0.0974	
ACAGACGAAGGAGCCGCAAAGAAGTAATTAAGGTATTAATAATCCCTCAATATAAATATCTCTCACTTATTTAAA	0.0968		
ACAGACGAAGGAGCCGCAAAGAAGTAATTAAGTGATGAATAATCCCTCAATATAAATATCTCTCACTTATTTAAA	0.0789		
ACAGACGAAGGAGCCGCAAAGAAGTAATTAATGGATGAATAATCCCTCAATATAAATATCTCTCACTTATTTAAA	0.121	0.105	0.0999
